Results taken from US20040093164A1, “Computer system and methods for producing morphogen analogs of human TDF-1” (priority 2002, published 2004).
Each block holds one molecule with its values, some of them ahead of it.

Key:
[1] = molecular target: alpha-2 macroglobulin; assay: competition binding assay, immobilized alpha-2 macroglobulin
[2] = molecular target: T1, alpha-2 macroglobulin (Homo sapiens, UniProt P01023); assay: competition binding assay with immobilized alpha-2 macroglobulin and labeled and unlabeled TDF-1; settings: immobilized alpha-2 macroglobulin
T1 sequence (P01023 24-1474): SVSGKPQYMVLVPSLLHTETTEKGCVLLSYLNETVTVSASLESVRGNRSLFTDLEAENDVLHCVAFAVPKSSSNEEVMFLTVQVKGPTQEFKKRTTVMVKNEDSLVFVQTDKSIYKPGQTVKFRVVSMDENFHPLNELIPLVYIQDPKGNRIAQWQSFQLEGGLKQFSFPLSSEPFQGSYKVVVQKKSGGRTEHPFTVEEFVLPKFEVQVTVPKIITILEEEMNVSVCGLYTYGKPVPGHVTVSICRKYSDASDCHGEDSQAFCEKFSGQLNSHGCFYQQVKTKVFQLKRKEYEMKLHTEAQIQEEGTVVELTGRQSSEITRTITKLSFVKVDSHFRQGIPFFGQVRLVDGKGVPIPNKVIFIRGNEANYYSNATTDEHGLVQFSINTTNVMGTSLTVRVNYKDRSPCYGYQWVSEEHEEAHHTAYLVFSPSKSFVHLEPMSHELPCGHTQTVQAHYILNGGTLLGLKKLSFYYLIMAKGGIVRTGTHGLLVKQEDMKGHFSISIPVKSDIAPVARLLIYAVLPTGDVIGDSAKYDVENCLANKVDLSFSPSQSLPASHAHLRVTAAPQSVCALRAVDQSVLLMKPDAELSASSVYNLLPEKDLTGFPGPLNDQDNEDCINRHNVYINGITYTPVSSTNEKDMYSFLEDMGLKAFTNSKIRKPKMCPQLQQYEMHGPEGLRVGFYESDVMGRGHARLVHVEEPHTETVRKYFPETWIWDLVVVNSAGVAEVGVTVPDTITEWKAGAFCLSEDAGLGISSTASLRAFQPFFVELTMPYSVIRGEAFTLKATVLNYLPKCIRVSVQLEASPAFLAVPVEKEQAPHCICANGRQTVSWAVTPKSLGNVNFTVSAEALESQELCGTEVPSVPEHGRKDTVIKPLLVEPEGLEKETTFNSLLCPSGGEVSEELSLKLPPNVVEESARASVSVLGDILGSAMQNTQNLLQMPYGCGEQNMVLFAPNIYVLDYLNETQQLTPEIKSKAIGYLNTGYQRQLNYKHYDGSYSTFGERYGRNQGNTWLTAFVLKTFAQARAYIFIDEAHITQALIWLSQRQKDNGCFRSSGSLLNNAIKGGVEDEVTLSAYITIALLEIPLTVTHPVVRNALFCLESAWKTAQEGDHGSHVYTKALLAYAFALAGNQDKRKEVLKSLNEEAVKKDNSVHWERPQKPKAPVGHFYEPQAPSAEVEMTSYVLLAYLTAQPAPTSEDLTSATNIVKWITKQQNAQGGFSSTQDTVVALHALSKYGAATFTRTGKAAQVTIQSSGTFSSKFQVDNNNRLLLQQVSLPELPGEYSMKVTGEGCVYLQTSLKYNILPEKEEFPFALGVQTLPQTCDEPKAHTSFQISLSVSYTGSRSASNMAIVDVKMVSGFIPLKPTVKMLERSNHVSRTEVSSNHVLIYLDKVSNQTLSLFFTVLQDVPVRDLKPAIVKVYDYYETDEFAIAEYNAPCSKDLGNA
From the text: This N-terminal portion of the protein, which is not part of the crystal structure, is positively charged and likely is highly flexible in solution.

[3] = test system: ROS cells; assay: effect of alpha-2 macroglobulin on TDF-1 stimulated alkaline phosphatase activity in a ROS cell assay; assay type: cell-based
[4] = solubility by comparing the partition coefficient of mutein versus wild type hTDF-1 dimer; assay type: physicochemical; settings: partition coefficient comparison, surmised result
From the text: The resulting candidate morphogen analogs can be produced using conventional site-directed mutagenesis methodologies, and the effect of the site-directed modification on the solubility of the hTDF-1 dimer can be measured, for example, by comparing the partition coefficient or “salting out properties” of the modified hTDF-1 dimer versus the native hTDF-1 dimer. See, for example, Scopes (1987) in Protein Purification: Principles and Practice, 2nd Edition (Springer-Verlag); and Englard et al. (1990) Meth. Enzymol. 182: 285-300, both incorporated herein by reference.
The enhanced solubility of the resulting morphogen analog is measured by comparing the partition coefficient of the Ala 63->Ser 63 mutein versus wild type hTDF-1 dimer. […] It is contemplated that additional muteins having multiple hydrophobic to hydrophilic substitutions can be produced and characterized using the protocols described in this Example. The biological activity of the resulting morphogen analogs can be determined using one or more of the TDF-1 activity assays described Example 1.

Molecule: Alpha-2 macroglobulin: protease scavenging protein known to bind proteins in serum and target them to the kidney for clearance
interference with TDF-1's ability to stimulate alkaline phosphatase activity [3]: not to interfere

B1: Ala 63->Ser 63 mutein: hTDF-1 with the alanine at position 63 mutated to a serine (protein, UniProt P18075 293-431, looked up, variant A63S)
Bone morphogenetic protein 7: STGSKQRSQNRSKTPKNQEALRMANVAENSSSDQRQACKKHELYVSFRDLGWQDWIIAPEGYSAYYCEGECAFPLNSYMNATNHAIVQTLVHFINPETVPKPCCAPTQLNAISVLYFDDSSNVILKKYRNMVVRACGCH
solubility versus native hTDF-1 [4]: higher solubility than native hTDF-1

The remaining lines, values ahead:

fold less affinity than TDF-1 [1]: 10 fold
Molecule: truncated mature TDF-1, wherein the first 22 amino acids have been cleaved from the mature form of TDF-1 in a standard trypsin digest (ligand)

interaction with alpha-2 macroglobulin [2]: interact specifically
Molecule: TDF-1: tissue morphogenic protein Transformation and Differentiation Factor-1, SEQ ID NO:1
